Measured values published in article PMC11187563, “The importance of tyrosines in multimers of cyclic RGD nonapeptides: towards αvβ6-integrin targeted radiotherapeutics” (RSC Medicinal Chemistry, 2024).
Read-outs that look alike come from different tables or passages of the source.

Columns and labels:
[1] = Ex vivo biodistribution of 177Lu-labeled peptide tetramers in H2009 xenografted SCID mice; details: CB17 SCID, mouse, iv, total radioactivity, H2009 bearing SCID mice; for tissue uptake at 1.5 h / tissue to tissue ratio at 1.5 h: 90 pmol, 90 min p.i.; for tissue uptake at 72 h / tissue to tissue ratio at 72 h: 92 pmol, 3 d p.i.
Protocol: (§1) The biodistribution of the ^177Lu-labeled peptide conjugates was investigated in severe combined immunodeficiency (SCID) mice bearing subcutaneous xenografts of the αvβ6-integrin expressing human lung adenocarcinoma cell line H2009 on their right shoulders. Two representative time points after i.v. administration (p.i.) were evaluated.
(§2) Analytical HPLC was performed on a Shimadzu (Kyoto, Japan) Prominence HPLC system equipped with either a Dr. Maisch ReproSil Pur C18 AQ 150 × 4.6 mm, 5 μm, 120 Å (AC1) or a Phenomenex Kinetex C18 150 × 4.6 mm 5 μm column (AC2). Semipreparative HPLC was performed on a Shimadzu HPLC system equipped with either a Dr. Maisch ReproSil Pur C18 AQ 250 × 10 mm, 5 μm, 120 Å column with 5 mL min^−1 flow (PC1) or a Dr. Maisch ReproSil Pur C18 150 × 30 mm, 5 μm, 120 Å column with 20 mL min^−1 flow (PC2). Solvents for both systems were water (A) and acetonitrile (B) each supplemented with 0.1% (vol) trifluoroacetic acid (TFA). ESI-MS spectra (positive mode) were recorded on a Shimadzu LC-MS 2020 single quadrupol mass spectrometer. Solvents for MS applications were water (A) and acetonitrile (B) each supplemented with 0.1% (vol) formic acid. The other experimental procedures (determination of log D7.4, cultivation of H2009 human lung adenocarcinoma cells, generation of tumor xenografts in CB17 SCID mice, and biodistribution) were performed as described before.[28] All animal experiments have been carried out according to applicable law and institutional guidelines of Technical University of Munich, and were approved by the responsible local authority (Regierung von Oberbayern). The H2009 cells were regularly authenticated and tested for mycoplasma contamination. DOTPI-tetraazide,[43]FF (previously termed AvB6),[29]FY,[34] and YY (also referred to as Tyr2-alkyne)[36] were synthesized as described previously.

[2] = tested on: αvβ6-integrin expressing human lung adenocarcinoma cell line H2009 xenografts; experiment: as above; details: H2009 bearing SCID mice
Protocol: as §1, §2

[3] = H2009 tumor, read-out: Tumor H2009 %IA/g
[4] = adrenals, read-out: Adrenals %IA/g
[5] = heart (myocard), read-out: Heart (myocard) %IA/g
[6] = kidneys, read-out: Kidneys %IA/g
[7] = large intestine (empty), read-out: Large intestine (empty) %IA/g
[8] = pancreas, read-out: Pancreas %IA/g
[9] = small intestine (empty), read-out: Small intestine (empty) %IA/g
[10] = stomach (empty), read-out: Stomach (empty) %IA/g
[11] = tumor/blood, read-out: tumor/organ ratio, Blood
[12] = tumor/heart (myocard), read-out: tumor/organ ratio, Heart (myocard)
[13] = tumor/liver, read-out: tumor/organ ratio, Liver
[14] = tumor/lung, read-out: tumor/organ ratio, Lung
[15] = tumor/pancreas, read-out: tumor/organ ratio, Pancreas
[16] = tumor/spleen, read-out: tumor/organ ratio, Spleen

Which tissue uptake at 1.5 h [1, 3] does the source give for `CC(C)C[C@@H]1NC(=O)[C@H](CC(=O)O)NC(=O)CNC(=O)[C@H](CCCNC(=N)N)NC(=O)[C@H](Cc2ccccc2)NC(=O)[C@H](CCCCNC(=O)CCc2cn(CCCNC(=O)CCP(=O)(O)CN3CCN(CP(=O)(O)CCC(=O)NCCCn4cc(CCC(=O)NCCCC[C@H]5C(=O)N[C@@H](Cc6ccccc6)C(=O)N[C@@H](CCCNC(=N)N)C(=O)NCC(=O)N[C@@H](CC(=O)O)C(=O)N[C@@H](CC(C)C)C(=O)N[C@@H](C)C(=O)N[C@@H](Cc6ccccc6)C(=O)N6CCC[C@@H]6C(=O)N5C)nn4)CCN(CP(=O)(O)CCC(=O)NCCCn4cc(CCC(=O)NCCCC[C@H]5C(=O)N[C@@H](Cc6ccccc6)C(=O)N[C@@H](CCCNC(=N)N)C(=O)NCC(=O)N[C@@H](CC(=O)O)C(=O)N[C@@H](CC(C)C)C(=O)N[C@@H](C)C(=O)N[C@@H](Cc6ccccc6)C(=O)N6CCC[C@@H]6C(=O)N5C)nn4)CCN(CP(=O)(O)CCC(=O)NCCCn4cc(CCC(=O)NCCCC[C@H]5C(=O)N[C@@H](Cc6ccccc6)C(=O)N[C@@H](CCCNC(=N)N)C(=O)NCC(=O)N[C@@H](CC(=O)O)C(=O)N[C@@H](CC(C)C)C(=O)N[C@@H](C)C(=O)N[C@@H](Cc6ccccc6)C(=O)N6CCC[C@@H]6C(=O)N5C)nn4)CC3)nn2)N(C)C(=O)[C@H]2CCCN2C(=O)[C@H](Cc2ccccc2)NC(=O)[C@H](C)NC1=O` [Compound 177Lu-Y0, metal not drawn] here?
Its tissue uptake at 1.5 h is 3.23 %ID/g.

What about the tissue uptake at 72 h [1, 3] of the same compound?
Its tissue uptake at 72 h is 1.72 %ID/g.

And the tissue uptake at 1.5 h [1, 4]?
Its tissue uptake at 1.5 h is 1.36 %ID/g.

And the tissue uptake at 72 h [1, 4]?
The tissue uptake at 72 h was 0.82 %ID/g.

And the tissue uptake at 1.5 h ([1]; blood, read-out: Blood %IA/g)?
The tissue uptake at 1.5 h was 1.2 %ID/g.

What about the tissue uptake at 72 h ([1]; blood, read-out: Blood %IA/g) of the same compound?
The tissue uptake at 72 h was 0.02 %ID/g.

What about the tissue uptake at 1.5 h ([1]; bone, read-out: Bone %IA/g) of the same compound?
The tissue uptake at 1.5 h was 1.45 %ID/g.

What about the tissue uptake at 72 h ([1]; bone, read-out: Bone %IA/g) of the same compound?
The tissue uptake at 72 h was 0.42 %ID/g.

What about the tissue uptake at 1.5 h [1, 5] of the same compound?
The tissue uptake at 1.5 h was 1.13 %ID/g.

What about the tissue uptake at 72 h [1, 5] of the same compound?
The tissue uptake at 72 h was 0.43 %ID/g.

And the tissue uptake at 1.5 h [1, 6]?
The tissue uptake at 1.5 h was 208 %ID/g.

What about the tissue uptake at 72 h [1, 6] of the same compound?
Its tissue uptake at 72 h is 243 %ID/g.

What about the tissue uptake at 1.5 h [1, 7] of the same compound?
The tissue uptake at 1.5 h was 3 %ID/g.

And the tissue uptake at 72 h [1, 7]?
The tissue uptake at 72 h was 1.19 %ID/g.

And the tissue uptake at 1.5 h ([1]; liver, read-out: Liver %IA/g)?
Its tissue uptake at 1.5 h is 5.03 %ID/g.

What about the tissue uptake at 72 h ([1]; liver, read-out: Liver %IA/g) of the same compound?
Its tissue uptake at 72 h is 2.61 %ID/g.

And the tissue uptake at 1.5 h ([1]; lung, read-out: Lung %IA/g)?
Its tissue uptake at 1.5 h is 3.59 %ID/g.

And the tissue uptake at 72 h ([1]; lung, read-out: Lung %IA/g)?
Its tissue uptake at 72 h is 1.22 %ID/g.

What about the tissue uptake at 1.5 h ([1]; muscle, read-out: Muscle %IA/g) of the same compound?
The tissue uptake at 1.5 h was 0.53 %ID/g.

And the tissue uptake at 72 h ([1]; muscle, read-out: Muscle %IA/g)?
The tissue uptake at 72 h was 0.29 %ID/g.

And the tissue uptake at 1.5 h [1, 8]?
Its tissue uptake at 1.5 h is 0.49 %ID/g.

What about the tissue uptake at 72 h [1, 8] of the same compound?
The tissue uptake at 72 h was 0.31 %ID/g.

What about the tissue uptake at 1.5 h [1, 9] of the same compound?
Its tissue uptake at 1.5 h is 1.67 %ID/g.

What about the tissue uptake at 72 h [1, 9] of the same compound?
The tissue uptake at 72 h was 0.82 %ID/g.

What about the tissue uptake at 1.5 h ([1]; spleen, read-out: Spleen %IA/g) of the same compound?
The tissue uptake at 1.5 h was 2.22 %ID/g.

And the tissue uptake at 72 h ([1]; spleen, read-out: Spleen %IA/g)?
The tissue uptake at 72 h was 1.58 %ID/g.

What about the tissue uptake at 1.5 h [1, 10] of the same compound?
Its tissue uptake at 1.5 h is 4.15 %ID/g.

And the tissue uptake at 72 h [1, 10]?
The tissue uptake at 72 h was 2.63 %ID/g.

And the tissue to tissue ratio at 72 h ([1]; tumor / adrenals, read-out: tumor/organ ratio, Adrenals)?
The tissue to tissue ratio at 72 h was 2.1.

What about the tissue to tissue ratio at 72 h ([1]; tumor / bone, read-out: tumor/organ ratio, Bone) of the same compound?
Its tissue to tissue ratio at 72 h is 5.

And the tissue to tissue ratio at 72 h ([1]; tumor / large intestine (empty), read-out: tumor/organ ratio, Large intestine (empty))?
Its tissue to tissue ratio at 72 h is 2.1.

And the tissue to tissue ratio at 72 h ([1]; tumor / muscle, read-out: tumor/organ ratio, Muscle)?
The tissue to tissue ratio at 72 h was 8.2.

And the tissue to tissue ratio at 72 h ([1]; tumor / small intestine (empty), read-out: tumor/organ ratio, Small intestine (empty))?
The tissue to tissue ratio at 72 h was 2.2.

What about the tissue to tissue ratio at 72 h ([1]; tumor / stomach (empty), read-out: tumor/organ ratio, Stomach (empty)) of the same compound?
Its tissue to tissue ratio at 72 h is 0.8.

And the tissue to tissue ratio at 1.5 h ([1]; tumor/adrenals, read-out: tumor/organ ratio, Adrenals)?
Its tissue to tissue ratio at 1.5 h is 2.9.

And the tissue to tissue ratio at 1.5 h [1, 11]?
Its tissue to tissue ratio at 1.5 h is 2.7.

What about the tissue to tissue ratio at 72 h [1, 11] of the same compound?
The tissue to tissue ratio at 72 h was 97.5.

What about the tissue to tissue ratio at 1.5 h ([1]; tumor/bone, read-out: tumor/organ ratio, Bone) of the same compound?
Its tissue to tissue ratio at 1.5 h is 2.4.

What about the tissue to tissue ratio at 1.5 h [1, 12] of the same compound?
The tissue to tissue ratio at 1.5 h was 3.

What about the tissue to tissue ratio at 72 h [1, 12] of the same compound?
Its tissue to tissue ratio at 72 h is 4.3.

What about the tissue to tissue ratio at 1.5 h ([1]; tumor/large intestine (empty), read-out: tumor/organ ratio, Large intestine (empty)) of the same compound?
Its tissue to tissue ratio at 1.5 h is 1.1.

And the tissue to tissue ratio at 1.5 h [1, 13]?
Its tissue to tissue ratio at 1.5 h is 0.7.

And the tissue to tissue ratio at 72 h [1, 13]?
The tissue to tissue ratio at 72 h was 0.7.

What about the tissue to tissue ratio at 1.5 h [1, 14] of the same compound?
The tissue to tissue ratio at 1.5 h was 0.9.

And the tissue to tissue ratio at 72 h [1, 14]?
Its tissue to tissue ratio at 72 h is 1.5.

And the tissue to tissue ratio at 1.5 h ([1]; tumor/muscle, read-out: tumor/organ ratio, Muscle)?
Its tissue to tissue ratio at 1.5 h is 6.

What about the tissue to tissue ratio at 1.5 h [1, 15] of the same compound?
Its tissue to tissue ratio at 1.5 h is 6.7.

And the tissue to tissue ratio at 72 h [1, 15]?
The tissue to tissue ratio at 72 h was 6.3.

And the tissue to tissue ratio at 1.5 h ([1]; tumor/small intestine (empty), read-out: tumor/organ ratio, Small intestine (empty))?
Its tissue to tissue ratio at 1.5 h is 2.

And the tissue to tissue ratio at 1.5 h [1, 16]?
The tissue to tissue ratio at 1.5 h was 1.6.

What about the tissue to tissue ratio at 72 h [1, 16] of the same compound?
Its tissue to tissue ratio at 72 h is 1.1.

And the tissue to tissue ratio at 1.5 h ([1]; tumor/stomach (empty), read-out: tumor/organ ratio, Stomach (empty))?
The tissue to tissue ratio at 1.5 h was 0.8.

What about the “tumor/organ ratio, Kidneys” value ([2]; 90 min p.i.) of the same compound?
Its value is 0.0.

And the “tumor/organ ratio, Kidneys” value ([2]; 3 d p.i.)?
The value was 0.0.
